The target in test [1] is human AXL (full length) (human) (UniProt P30530). The test can be described thus: flow cytometry, A431 cells pre-incubated with 10 µg/mL Gas6 (competitor); value less accurate due to low binding. On the technique in general: A flow cytometer gives signals particle by particle.
Test [2] shares this target. Put plainly: flow cytometry, A431 cells pre-incubated with 10 µg/mL Gas6 (competitor).
Test [3] shares this target. The test can be described thus: flow cytometry, A431 cells, no Gas6.

The results in this text go back to patent US20180326084A1.

B1: IgG1-YW327.6S2 (antibody, from another filing, V domains shown)
VH: EVQLVESGGGLVQPGGSLRLSCAASGFSLSGSWIHWVRQAPGKGLEWVGWINPYRGYAYYADSVKGRFTISADTSKNTAYLQMNSLRAEDTAVYYCAREYSGWGGSSVGYAMDYWGQGTLVTVSS
VL: DIQMTQSPSSLSASVGDRVTITCRASQDVSTAVAWYQQKPGKAPKLLIYSASFLYSGVPSRFSGSGSGTDFTLTISSLQPEDFATYYCQQSYTTPPTFGQGTKVEIK
With B1, in test [1], the concentration giving a half-maximal response (EC50) came out at 1.9 µg/mL. Also, in test [2], the fold change of EC50 after Gas6 pre-incubation against no Gas6 came to 21 fold, the maximal binding in presence of Gas6 (% of binding in absence of Gas6) is 41% and the maximal binding in presence of Gas6 (% of binding without Gas6) worked out at 19%. For the same molecule, the EC50 in test [3] was 0.09 µg/mL.

One may read the EC50 as the concentration that produces a half-maximal response. The low end stands for a more potent agent, the high end for a less potent agent.
